{"source": "patent US20210108174A1", "about": "(CRISPR THERAPEUTICS, published 2021)", "binders": {"B1": {"name": "Anti-BCMA CAR of CTX-160 (CD28 co-stimulatory domain) (other)", "chain": "EVQLVESGGGLVQPGGSLKLSCAASGIDFSRYWMSWVRQAPGKGLEWIGEINPDSSTINYADSVKGRFTISRDNAKNTLYLQMNLSRAEDTALYYCASLYYDYGDAMDYWGQGTLVTVSSGGGGSGGGGSGGGGSDIQMTQSPSSLSASVGDRVTITCRASQSVDSNVAWYQQKPEKAPKSLIFSASLRFSGVPSRFSGSGSGTDFTLTISSLQPEDFATYYCQQYNSYPLTFGAGTKLEIKSAAAFVPVFLPAKPTTTPAPRPPTPAPTIASQPLSLRPEACRPAAGGAVHTRGLDFACDIYIWAPLAGTCGVLLLSLVITLYCNHRNRSKRSRLLHSDYMNMTPRRPGPTRKHYQPYAPPRDFAAYRSRVKFSRSADAPAYQQGQNQLYNELNLGRREEYDVLDKRRGRDPEMGGKPRRKNPQEGLYNELQKDKMAEAYSEIGMKGERRRGKGHDGLYQGLSTATKDTYDALHMQALPPR", "notes": "Chimeric antigen receptor on edited primary human T cells; also called anti-BCMA (CD28) CAR"}}, "molecular_target": "T1, biotinylated recombinant human BCMA (human, UniProt Q02223 1-54, biotinylated)", "T1 construct": "Bought reagent; also called biotinylated BCMA; Recombinant biotinylated human BCMA (Acro Biosystems Cat:# BC7-H82F0)", "T1 sequence (looked up)": "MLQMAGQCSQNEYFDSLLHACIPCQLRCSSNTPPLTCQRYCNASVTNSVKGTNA", "test": "flow cytometry, biotinylated BCMA detected with streptavidin-APC on CAR T cells"}
{"binder": "B1", "values": [{"measurement": "percent of cells that bound biotinylated BCMA", "value": 60, "unit": "%"}]}
